# Assay results: paper PMC12460158, “Structural basis of fast N-type inactivation in Kv channels” (Nature, 2025)
# Ends that are not written are not given here.
# B1: acetylated free N-terminal peptide of EI Shaker (Ac-AAVAGLYGLGKKRQHRKKQ) (peptide)
# peptide: Ac-AAVAGLYGLGKKRQHRKKQ
# notes: N terminus of the Shaker Kv channel without the initiator Met, with the E12K and D13K changes of EI Shaker; molecular weight 2,151 Da; also called additional N-terminal peptide; source: synthetic peptide (GenScript)
# B2: full-length E12K/D13K AcA-EI Shaker Kv channel (enhanced inactivation mutant, initiator Met removed, Ala2 acetylated) (natural protein, Drosophila melanogaster, UniProt P08510 2-655, looked up)
# chain: AAVAGLYGLGKKRQHRKKQQQQQQHQKEQLEQKEEQKKIAERKLQLREQQLQRNSLDGYGSLPKLSSQDEEGGAGHGFGGGPQHFEPIPHDHDFCERVVINVSGLRFETQLRTLNQFPDTLLGDPARRLRYFDPLRNEYFFDRSRPSFDAILYYYQSGGRLRRPVNVPLDVFSEEIKFYELGDQAINKFREDEGFIKEEERPLPDNEKQRKVWLLFEYPESSQAARVVAIISVFVILLSIVIFCLETLPEFKHYKVFNTTTNGTKIEEDEVPDITDPFFLIETLCIIWFTFELTVRFLACPNKLNFCRDVMNVIDIIAIIPYFITLATVVAEEEDTLNLPKAPVSPQDKSSNQAMSLAILRVIRLVRVFRIFKLSRHSKGLQILGRTLKASMRELGLLIFFLFIGVVLFSSAVYFAEAGSENSFFKSIPDAFWWAVVTMTTVGYGDMTPVGVWGKIVGSLCAIAGVLTIALPVPVIVSNFNYFYHRETDQEEMQSQNFNHVTSCPYLPGTLGQHMKKSSLSESSSDMMDLDDGVESTPGLTETHPGRSAVAPFLGAQQQQQQPVASSLSMSIDKQLQHPLQQLTQTQLYQQQQQQQQQQQNGFKQQQQQTQQQLQQQQSHTINASAAAATSGSGSSGLTMRHNNALAVSIETDV
# modifications: acetyl on the N-terminal Ala2 (initiator Met removed), by mass spectrometry
# notes: Shaker Kv channel, Drosophila melanogaster; Residues of the TEV site may remain at the C terminus (surmise); not shown: mVenus, C-terminal, cleaved; polyhistidine, C-terminal, cleaved
# B3: GT Shaker Kv channel (N-terminally mVenus tagged Shaker after TEV cleavage, with additional Gly and Thr on the N terminus) (natural protein, Drosophila melanogaster)
# chain: GTMAAVAGLYGLGEDRQHRKKQQQQQQHQKEQLEQKEEQKKIAERKLQLREQQLQRNSLDGYGSLPKLSSQDEEGGAGHGFGGGPQHFEPIPHDHDFCERVVINVSGLRFETQLRTLNQFPDTLLGDPARRLRYFDPLRNEYFFDRSRPSFDAILYYYQSGGRLRRPVNVPLDVFSEEIKFYELGDQAINKFREDEGFIKEEERPLPDNEKQRKVWLLFEYPESSQAARVVAIISVFVILLSIVIFCLETLPEFKHYKVFNTTTNGTKIEEDEVPDITDPFFLIETLCIIWFTFELTVRFLACPNKLNFCRDVMNVIDIIAIIPYFITLATVVAEEEDTLNLPKAPVSPQDKSSNQAMSLAILRVIRLVRVFRIFKLSRHSKGLQILGRTLKASMRELGLLIFFLFIGVVLFSSAVYFAEAGSENSFFKSIPDAFWWAVVTMTTVGYGDMTPVGVWGKIVGSLCAIAGVLTIALPVPVIVSNFNYFYHRETDQEEMQSQNFNHVTSCPYLPGTLGQHMKKSSLSESSSDMMDLDDGVESTPGLTETHPGRSAVAPFLGAQQQQQQPVASSLSMSIDKQLQHPLQQLTQTQLYQQQQQQQQQQQNGFKQQQQQTQQQLQQQQSHTINASAAAATSGSGSSGLTMRHNNALAVSIETDV
# notes: two additional residues (Gly and Thr) left on the N terminus after removal of the mVenus tag with TEV protease, confirmed by mass spectrometry; Shaker Kv channel, Drosophila melanogaster, full-length gene; the N-terminal Met stands at position 3 of this construct; Purified by the N-terminal tag, so at least one N terminus is intact in each tetramer; other N termini may be truncated by …
# B4: full-length wild-type (WT) Shaker Kv channel, C-terminally mVenus tagged, tag removed (natural protein, Drosophila melanogaster, UniProt P08510 1-655, looked up)
# chain: MAAVAGLYGLGEDRQHRKKQQQQQQHQKEQLEQKEEQKKIAERKLQLREQQLQRNSLDGYGSLPKLSSQDEEGGAGHGFGGGPQHFEPIPHDHDFCERVVINVSGLRFETQLRTLNQFPDTLLGDPARRLRYFDPLRNEYFFDRSRPSFDAILYYYQSGGRLRRPVNVPLDVFSEEIKFYELGDQAINKFREDEGFIKEEERPLPDNEKQRKVWLLFEYPESSQAARVVAIISVFVILLSIVIFCLETLPEFKHYKVFNTTTNGTKIEEDEVPDITDPFFLIETLCIIWFTFELTVRFLACPNKLNFCRDVMNVIDIIAIIPYFITLATVVAEEEDTLNLPKAPVSPQDKSSNQAMSLAILRVIRLVRVFRIFKLSRHSKGLQILGRTLKASMRELGLLIFFLFIGVVLFSSAVYFAEAGSENSFFKSIPDAFWWAVVTMTTVGYGDMTPVGVWGKIVGSLCAIAGVLTIALPVPVIVSNFNYFYHRETDQEEMQSQNFNHVTSCPYLPGTLGQHMKKSSLSESSSDMMDLDDGVESTPGLTETHPGRSAVAPFLGAQQQQQQPVASSLSMSIDKQLQHPLQQLTQTQLYQQQQQQQQQQQNGFKQQQQQTQQQLQQQQSHTINASAAAATSGSGSSGLTMRHNNALAVSIETDV
# notes: Shaker Kv channel, Drosophila melanogaster, full-length gene; Residues of the TEV site may remain at the C terminus (surmise); also called C-terminally tagged WT Shaker; C-terminal mVenus-tagged Shaker; not shown: mVenus, C-terminal, cleaved; polyhistidine, C-terminal, cleaved
# How the values were obtained:
# [1] = biological target: B2; experiment: cryo-EM structure; AcA-EI Shaker in MSP1E3D1 lipid nanodiscs, 4 mM KCl, 46 mM NaCl, incubated with 1 mM free acetylated N-terminal peptide for 30 min before grid preparation; C1; conditions: both partners purified
# [2] = biological target: the molecule itself; experiment: cryo-EM structure; channel in MSP1E3D1 lipid nanodiscs (POPC:POPG:POPE 3:1:1), 20 mM Tris pH 7.5, 4 mM KCl, 46 mM NaCl; C4 refinement and focused classification in C1
binding result [1],Binder,binding result [2]
binds,B1,
,B2,binds
,B3,binds
,B4,binds
